Test results from patent US20140087426.

Experiments:
Test in all cases: cell_activity
[1] = test system: gria3a TALEN right (synthetic (Xanthomonas TALE)); conditions: 49/55, as pair, zebrafish embryos
[2] = test system: miR-1-2 TALEN left (synthetic (Xanthomonas TALE)); conditions: 34/41, as pair
[3] = test system: miR-451 TALEN left (synthetic (Xanthomonas TALE)); conditions: 2/47, as pair, 22-bp spacer
[4] = test system: miR-214 TALEN left (synthetic (Xanthomonas TALE)); conditions: 25/47, as pair
[5] = test system: miR-214 TALEN right (synthetic (Xanthomonas TALE)); conditions: 25/47, as pair
[6] = test system: spexin TALEN left (synthetic (Xanthomonas TALE)); conditions: 33/36, as pair
[7] = test system: kiss1r TALEN left (synthetic (Xanthomonas TALE)); conditions: 22/43, as pair
[8] = test system: miR-451 TALEN right (synthetic (Xanthomonas TALE)); conditions: 2/47, as pair, 22-bp spacer
[9] = test system: kiss1 TALEN left (synthetic (Xanthomonas TALE)); conditions: 32/40, as pair
[10] = test system: tnikb TALEN right (synthetic (Xanthomonas TALE)); conditions: 18/39, as pair
[11] = test system: miR-1-2 TALEN right (synthetic (Xanthomonas TALE)); conditions: 34/41, as pair
[12] = test system: kiss2r TALEN left (synthetic (Xanthomonas TALE)); conditions: 3/45, as pair, 21-bp spacer
[13] = test system: kiss2r TALEN right (synthetic (Xanthomonas TALE)); conditions: 3/45, as pair, 21-bp spacer
[14] = test system: kiss1r TALEN right (synthetic (Xanthomonas TALE)); conditions: 22/43, as pair
[15] = test system: kiss2 TALEN left (synthetic (Xanthomonas TALE)); conditions: 69/69, as pair
[16] = test system: tnikb TALEN left (synthetic (Xanthomonas TALE)); conditions: 18/39, as pair
[17] = test system: kiss1 TALEN right (synthetic (Xanthomonas TALE)); conditions: 32/40, as pair
[18] = test system: gnrh3 TALEN left (synthetic (Xanthomonas TALE)); conditions: 6/33, as pair, 21-bp spacer
[19] = test system: gnrh3 TALEN right (synthetic (Xanthomonas TALE)); conditions: 6/33, as pair, 21-bp spacer
[20] = test system: miR-1-1 TALEN left (synthetic (Xanthomonas TALE)); conditions: 64/66, as pair
[21] = test system: kiss2 TALEN right (synthetic (Xanthomonas TALE)); conditions: 69/69, as pair
[22] = test system: gria3a TALEN left T15A (synthetic (Xanthomonas TALE)); conditions: mean of 3
[23] = test system: gria3a TALEN left T8C (synthetic (Xanthomonas TALE)); conditions: mean of 3
[24] = test system: gria3a TALEN left CLRA (synthetic (Xanthomonas TALE)); conditions: mean of 3
[25] = test system: gria3a TALEN left G2T (synthetic (Xanthomonas TALE)); conditions: mean of 3
[26] = test system: gria3a TALEN left T15C (synthetic (Xanthomonas TALE)); conditions: mean of 3
[27] = test system: gria3a TALEN left C1A (synthetic (Xanthomonas TALE)); conditions: mean of 3
[28] = test system: gria3a TALEN left -T15 (synthetic (Xanthomonas TALE)); conditions: mean of 3
[29] = test system: gria3a TALEN left A7T (synthetic (Xanthomonas TALE)); conditions: mean of 3
[30] = test system: gria3a TALEN left T8A (synthetic (Xanthomonas TALE)); conditions: 0/32 in 3
[31] = test system: gria3a TALEN left -G2 (synthetic (Xanthomonas TALE)); conditions: mean of 3, nearly abolished
[32] = test system: gria3a TALEN left G2A (synthetic (Xanthomonas TALE)); conditions: mean of 3
[33] = test system: gria3a TALEN left -T8 (synthetic (Xanthomonas TALE)); conditions: 0/64 in 3
[34] = test system: gria3a TALEN left C1T (synthetic (Xanthomonas TALE)); conditions: mean of 3
[35] = test system: gria3a TALEN left C1G (synthetic (Xanthomonas TALE)); conditions: mean of 3
[36] = test system: gria3a TALEN left A7G (synthetic (Xanthomonas TALE)); conditions: mean of 3
[37] = test system: gria3a TALEN left -C1 (synthetic (Xanthomonas TALE)); conditions: mean of 3
[38] = test system: gria3a TALEN left CLRT (synthetic (Xanthomonas TALE)); conditions: mean of 3
[39] = test system: gria3a TALEN left CLRG (synthetic (Xanthomonas TALE)); conditions: mean of 3
[40] = test system: gria3a TALEN left T8G (synthetic (Xanthomonas TALE)); conditions: mean of 3
[41] = test system: gria3a TALEN left T15G (synthetic (Xanthomonas TALE)); conditions: mean of 3
[42] = test system: gria3a TALEN left (synthetic (Xanthomonas TALE)); conditions: mean of 3; with right TALEN, zebrafish embryos; Table 4: 49/55
[43] = test system: gria3a TALEN left -A7 (synthetic (Xanthomonas TALE)); conditions: mean of 3, nearly abolished
[44] = test system: gria3a TALEN left A7C (synthetic (Xanthomonas TALE)); conditions: mean of 3
[45] = test system: gria3a TALEN left G2C (synthetic (Xanthomonas TALE)); conditions: mean of 3
[46] = test system: miR-1-1 TALEN right (synthetic (Xanthomonas TALE)); conditions: 64/66, as pair
[47] = test system: spexin TALEN right (synthetic (Xanthomonas TALE)); conditions: 33/36, as pair

Sequence “GAGTTTCTGCTCTTTA (double strand) [gria3a right site]” has an activity (% mutant alleles) [1] of 89.1.
With “TATGAACATATAAAAGC (double strand) [miR-1-2 left site]” the activity (% mutant alleles) [2] was 82.9.
Sequence “TCGCTGTGACAGAGAGA (double strand) [miR-451 left site]” has an activity (% mutant alleles) [3] of 4.3.
Work on “TGCAGAACTTCCTGCAC (double strand) [miR-214 left site]” yielded an activity (% mutant alleles) [4] of 53.2.
With “CAGGCAGACAGATGGCA (double strand) [miR-214 right site]” the activity (% mutant alleles) [5] was 53.2.
In the case of “TTTGTGTCCCATTCCT (double strand) [spexin left site]”, the activity (% mutant alleles) [6] is reported as 91.7.
For “TTCATGTGCAAATTTGT (double strand) [kiss1r left site]”, the activity (% mutant alleles) [7] was 51.2.
“CTGAGTTTAGTAATGGA (double strand) [miR-451 right site]” showed an activity (% mutant alleles) [8] of 4.3.
Sequence “TACACACAAACCCCTCT (double strand) [kiss1 left site]” has an activity (% mutant alleles) [9] of 80.
Work on “ATTTTTGAGCTGGTGGA (double strand) [tnikb right site]” yielded an activity (% mutant alleles) [10] of 46.2.
“GTATGTATTCTTGGTCA (double strand) [miR-1-2 right site]” was tested, and the activity (% mutant alleles) [11] was 82.9.
Sequence “TAACCTAATAGTCATCTA (double strand) [kiss2r left site]” has an activity (% mutant alleles) [12] of 6.7.
“GATGAAGACGGTTACAAA (double strand) [kiss2r right site]” showed an activity (% mutant alleles) [13] of 6.7.
“GTAATAATAGAACCTCA (double strand) [kiss1r right site]” was tested, and the activity (% mutant alleles) [14] was 51.2.
“TGATTCTCTTCATGTCTG (double strand) [kiss2 left site]” showed an activity (% mutant alleles) [15] of 100.
In the case of “TGTTATTTTCTCCCCT (double strand) [tnikb left site]”, the activity (% mutant alleles) [16] is reported as 46.2.
“CTTAGAAGGTAAGTTCA (double strand) [kiss1 right site]” was tested, and the activity (% mutant alleles) [17] was 80.
Sequence “TGTTTTAGTTTTAGCATG (double strand) [gnrh3 left site]” has an activity (% mutant alleles) [18] of 18.2.
With “GTCCAGTTGTTGCTGTTA (double strand) [gnrh3 right site]” the activity (% mutant alleles) [19] was 18.2.
For “TATGAACAAGAGCAGC (double strand) [miR-1-1 left site]”, the activity (% mutant alleles) [20] was 97.
In the case of “CAGCTATGAGAGCAATA (double strand) [kiss2 right site]”, the activity (% mutant alleles) [21] is reported as 100.
For “TCGTCCAATAGCTTCTC (double strand) [gria3a left site]”, the activity (% mutant alleles) [22] was 20.8, the activity (% mutant alleles) [23] was 21.9 and the activity (% mutant alleles) [24] was 76. It also gave an activity (% mutant alleles) [25] of 52.6, an activity (% mutant alleles) [26] of 3.1 and an activity (% mutant alleles) [27] of 33.3. It also gave an activity (% mutant alleles) [28] of 71.9, an activity (% mutant alleles) [29] of 71.9 and an activity (% mutant alleles) [30] of 0. For the same sequence, the activity (% mutant alleles) [31] was 1.6, the activity (% mutant alleles) [32] was 17.9 and the activity (% mutant alleles) [33] was 0. For the same sequence, the activity (% mutant alleles) [34] was 2.1, the activity (% mutant alleles) [35] was 79.2 and the activity (% mutant alleles) [36] was 82.3. For the same sequence, the activity (% mutant alleles) [37] was 30.7, the activity (% mutant alleles) [38] was 63.1 and the activity (% mutant alleles) [39] was 2.2. It also gave an activity (% mutant alleles) [40] of 14.6, an activity (% mutant alleles) [41] of 65.6 and an activity (% mutant alleles) [42] of 84.2. The activity (% mutant alleles) [43] was 0.5, the activity (% mutant alleles) [44] was 40.1 and the activity (% mutant alleles) [45] was 12.1.
Work on “GTATGTATCCCAGGTGA (double strand) [miR-1-1 right site]” yielded an activity (% mutant alleles) [46] of 97.
Work on “AATGTCATGCAATGTTA (double strand) [spexin right site]” yielded an activity (% mutant alleles) [47] of 91.7.
